These results are taken from patent US20140154245A1 (L AND K BIOMED, published 2014).

For assay [1], the target named is T1, human EMAPII (endothelial monocyte activating polypeptide II) antigen (human, UniProt Q12904 1-312, limits assumed).
T1 construct: also called EMAPII antigen; p43
T1 sequence: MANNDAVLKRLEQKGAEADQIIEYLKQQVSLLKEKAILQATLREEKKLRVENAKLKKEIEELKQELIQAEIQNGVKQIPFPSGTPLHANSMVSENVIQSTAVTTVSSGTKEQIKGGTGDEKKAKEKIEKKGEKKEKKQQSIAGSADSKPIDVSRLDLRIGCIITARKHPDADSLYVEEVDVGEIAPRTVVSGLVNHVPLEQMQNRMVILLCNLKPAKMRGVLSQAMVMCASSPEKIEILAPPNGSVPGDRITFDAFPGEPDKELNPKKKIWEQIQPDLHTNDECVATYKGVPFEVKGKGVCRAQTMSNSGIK
Put plainly: ELISA, EMAPII antigen coated on the plate, antibody titrated. The method, then:
(§1) Wells of a 96 well plate were coated with 100 μl of different concentrations of EMAPII antigen (10 μg/ml, 5 μg/ml, 2.5 μg/ml, 1 μg/ml, 0.5 μg/ml, 0.2 μg/ml) and were incubated at 37° C. for 2 hours. The coated antigens were blocked using BSA and washed with washing buffer. Dilutions of the parental murine anti-EMAPII antibody (starting at 1 μg/ml, two-fold serial dilution) were added to the antigens and incubated for 2 hours. The mixture was washed three times and anti-IgG-HRP antibody was added to the mixture and incubated for 1 hour. The mixture was washed with washing buffer three times. The substrate was added to the mixture and maintained for 30 minutes. After developing, stop solution was added and detected absorbance at the wavelength of 450 nm (FIG. 12). Bound antibody was detected with anti-mouse IgG-HRP conjugate. A concentration of 2.5 μg/ml antigen was selected for testing the chimeric clones.
(§2) The ability of mouse/human chimeric antibody BAP015_{—}1 to bind to the EMAPII antigen was determined by using the ELISA protocol provided by StemScience and the optimized conditions determined as described above. Bound chimeric antibody was detected with anti-human-IgG HRP conjugate (FIG. 13). All 3 clones tested bind to EMAPII. The binding curves of all 3 clones are very similar to each other and to the murine antibody.

Assay [2] addresses T1, human EMAPII (endothelial monocyte …). Put plainly: ELISA, EMAPII antigen coated on the plate, antibody titrated (3 clones). The method, then:
as §1, §2
On the technique in general: ELISA stands for enzyme-linked immunosorbent assay.

B1: mouse anti-EMAPII monoclonal antibody (antibody, V domains shown)
VH: QVQLQQSGAELARPGASVKMSCKASGYTFTSYTMHWVKQRPGQGLEWIGYINPSSGFTNYNQKFKDKATLTADKSSSTAYMQLSSLTSEDSAVYYCASRFAYWGQG
VL: DIVMTQSHKFMSTSVGDRVSITCKASQDVSTAVAWYQQKPGQSPKLLIFSASYRYTGVPDRFTGSGSGTDFTFTISSVQAEDLAVYYCQQHYSTPYTFGQG
notes: Mouse IgG1 with kappa light chain, from a hybridoma; also called murine EMAPII mAb; parental murine anti-EMAPII antibody
Take B1: the EC50 in assay [1] amounted to 0.0209 µg/mL.

B2: mouse/human chimeric antibody BAP015-1 (antibody, V domains shown)
VH: QVQLQQSGAELARPGASVKMSCKASGYTFTSYTMHWVKQRPGQGLEWIGYINPSSGFTNYNQKFKDKATLTADKSSSTAYMQLSSLTSEDSAVYYCASRFAYWGQG
VL: DIVMTQSHKFMSTSVGDRVSITCKASQDVSTAVAWYQQKPGQSPKLLIFSASYRYTGVPDRFTGSGSGTDFTFTISSVQAEDLAVYYCQQHYSTPYTFGQG
notes: VL is fused to a human kappa constant region and VH to a human IgG1 constant region (full-length IgG1, from CHO-S supernatant); Three plasmid clones of the same construct were tested; they are treated as one molecule; also called chimeric anti-EMAPII antibody; chimeric clone BAP015-1
In the case of B2, in assay [2], the EC50 was 0.0215 to 0.0302 µg/mL.

For orientation: EC50 means the midpoint of the concentration-response curve.
